We go through 1 protein from paper PMC12675262 (Journal of Experimental Botany, 2025).

This data set concerns the molecule itself. Briefly: SEC. In general terms: SEC sorts molecules by how far they enter the pores of the column.

One may read the stoichiometry N as the number of molecules, sites or subunits per partner or assembly.

B1: Synechocystis sp. PCC 6803 fructose-1,6-bisphosphatase (FBPase; slr0952) (enzyme, UniProt P74324 1-347, looked up)
chain: MTVSEIHIPNSLLDRDCTTLSRHVLQQLNSFGADAQDLSAIMNRIALAGKLIARRLSRAGLMADVLGFTGETNVQGESVKKMDVFANDVFISVFKQSGLVCRLASEEMEKPYYIPENCPIGRYTLLYDPIDGSSNVDINLNVGSIFAIRQQEGDDLDGSASDLLANGDKQIAAGYILYGPSTILVYSLGSGVHSFILDPSLGEFILAQENIRIPNHGPIYSTNEGNFWQWDEALRDYTRYVHRHEGYTARYSGALVGDIHRILMQGGVFLYPGTEKNPDGKLRLLYETAPLAFLVEQAGGRASDGQKRLLDLIPSKLHQRTPAIIGSAEDVKLVESFISDHKQRQGN
Regarding B1, the “stoichiometry N” value came out at 4.
